# Data: the supplement of paper PMC12764529
# ± gives the half width of the 95% confidence interval.
# Legend:
# [1] = folding stability dG unfold (combined trypsin and chymotrypsin); higher = more stable
# In short: (§1)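 Only designs with AlphaFold2 dimer inter-PAE above 15 were retained; each was a mini-protein under 80 residues with no cysteine, in a PA-tagged cDNA display construct. After digestion with trypsin and chymotrypsin and sequencing, K50 was inferred by Bayesian fitting of counts, and unfolding free energy was derived per protease or combined against a sequence-predicted unfolded-state K50 and a shared folded-state K50.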
# [2] = folding stability dG unfold from chymotrypsin proteolysis; higher = more stable
# In short: as §1
# [3] = folding stability dG unfold from trypsin proteolysis; higher = more stable
# In short: as §1
sequence,measurement,setting,value
SAGGSAGGSAGGNITVTEDGWIVIEIPYYSPDGGPSPITIVIPIPKMPPEEAEELADKGSAGGSAGGSAGGS [r10_1096_TrROS],folding stability dG unfold,[1],1.11 ± 0.14 kcal/mol
same,folding stability dG unfold,[2],1.04 ± 0.14 kcal/mol
same,folding stability dG unfold,[3],1.13 ± 0.14 kcal/mol
SAGGSAGGSARTLTLTFLTDSPEVAERFVRELREQKPLRVEASYRRLPDGRYLVTVTIHLDSAGGSAGGSAG [r3_273_TrMRF],folding stability dG unfold,[1],4.64 ± 0.074 kcal/mol
same,folding stability dG unfold,[2],5.14 ± 0.14 kcal/mol
same,folding stability dG unfold,[3],3.21 ± 0.084 kcal/mol
SAGGPGYNINIDVKIYPDPNDNHFVIEVKITIMPMEPDPDDGGWKQRSRTVPQEILLPPGESAEDIFSAGGS [r8_323_TrROS],folding stability dG unfold,[1],2.62 ± 0.13 kcal/mol
same,folding stability dG unfold,[2],1.86 ± 0.1 kcal/mol
same,folding stability dG unfold,[3],3.19 ± 0.17 kcal/mol
SAGGSAGGSPVVTVENVTRPSDYYTYTFKLPDGTVITLDAKSEEEAREKAKELGLENLNFKTEESAGGSAGG [r6_601_JUSTAS],folding stability dG unfold,[1],3.8 ± 0.14 kcal/mol
same,folding stability dG unfold,[2],3.88 ± 0.13 kcal/mol
same,folding stability dG unfold,[3],3.15 ± 0.19 kcal/mol
SAGGSAGGSALPEAEVLEVRFSPDGRRVDAVLRLDGELLVLRIDFPPDGTARIELYPAEDISAGGSAGGSAG [r3_167_TrMRF],folding stability dG unfold,[1],2.07 ± 0.13 kcal/mol
same,folding stability dG unfold,[2],2.43 ± 0.068 kcal/mol
same,folding stability dG unfold,[3],1.05 ± 0.065 kcal/mol
SAGGSAGGSAGLPPGDKVTISIPIVIPDGYMINSHITIDPDNGETEIEIQIYPLKDPDALSAGGSAGGSAGG [r11_695_TrROS],folding stability dG unfold,[1],2.11 ± 0.14 kcal/mol
same,folding stability dG unfold,[2],2.12 ± 0.11 kcal/mol
same,folding stability dG unfold,[3],2.1 ± 0.21 kcal/mol
SAGPVVLSPDDTVKIGKKELTFFSDGTVSVKYPDGTGESITVTVDPSSGNITLTETFTEPETGTTPVENSAG [r5_33_JUSTAS],folding stability dG unfold,[1],1.17 ± 0.16 kcal/mol
same,folding stability dG unfold,[2],1.48 ± 0.075 kcal/mol
same,folding stability dG unfold,[3],0.473 ± 0.15 kcal/mol
SAGGSAGGSAGGMTPEEIEALKARPLPDGSPILSIDREGNVYTITTARDPSVRTTVIPAESAGGSAGGSAGG [r7_995_JUSTAS],folding stability dG unfold,[1],-0.626 ± 0.54 kcal/mol
same,folding stability dG unfold,[2],-0.853 ± 0.43 kcal/mol
same,folding stability dG unfold,[3],-0.623 ± 0.61 kcal/mol
SAKKIILIKAESEEELKKAIEEAKKLAEEGKKVEIIIETPKGLILIEIDVKTKKIKIKNLETGEEIELESAG [r14_423_TrROS_Hall],folding stability dG unfold,[1],1.19 ± 0.23 kcal/mol
same,folding stability dG unfold,[2],0.375 ± 0.1 kcal/mol
same,folding stability dG unfold,[3],1.49 ± 0.1 kcal/mol
SASMTLTIPLPLKPGDRVVVEATHPLGYGFETEELPDGSVRLTLTVPTPDAPPATLHIRVYEPNTGKLASAG [r14_39_TrMRF],folding stability dG unfold,[1],2.85 ± 0.1 kcal/mol
same,folding stability dG unfold,[2],3.24 ± 0.056 kcal/mol
same,folding stability dG unfold,[3],2.28 ± 0.051 kcal/mol
SAGGSAGGSAGPVKLTLEVPEEEAEELAEALREAGYEVEIERDEETKRLRVTITVDPEALSAGGSAGGSAGG [r11_1043_TrROS_Hall],folding stability dG unfold,[1],2.01 ± 0.12 kcal/mol
same,folding stability dG unfold,[2],2.2 ± 0.056 kcal/mol
same,folding stability dG unfold,[3],1.78 ± 0.095 kcal/mol
ETIYLSSSNPEEVIKALKEAASKGKTVVVEANPEFFKEFIAQGFKVEKILKIEPIPGGDGYRAEIKISPGGS [r1_173_TrMRF],folding stability dG unfold,[1],1.97 ± 0.14 kcal/mol
same,folding stability dG unfold,[2],1.95 ± 0.063 kcal/mol
same,folding stability dG unfold,[3],1.64 ± 0.082 kcal/mol
SAGGKTVTIKAKSLEDALKAIEALPSVDKVTITVEVNGKTVTITLTVKPPPPVKYELDKNGKLVKKEKSAGG [r13_183_TrROS_Hall],folding stability dG unfold,[1],1.28 ± 0.25 kcal/mol
same,folding stability dG unfold,[2],1.56 ± 0.086 kcal/mol
same,folding stability dG unfold,[3],0.794 ± 0.05 kcal/mol
SAGGSAGGSAGGSPNWVWILITVKITFPIYKYDPDGKPLEPIEITIEFTVLIRIPPGDFSAGGSAGGSAGGS [r4_425_TrROS],folding stability dG unfold,[1],5.15 ± 0.27 kcal/mol
same,folding stability dG unfold,[2],5.34 ± 0.18 kcal/mol
same,folding stability dG unfold,[3],3.63 ± 0.19 kcal/mol
SAGGSAGGGPDPSLPPPEVIEVVLPPDTLFRPPGGGYLSPEEVVELAKELEEREGIKATVTIRPSAGGSAGG [r6_162_JUSTAS],folding stability dG unfold,[1],0.823 ± 0.15 kcal/mol
same,folding stability dG unfold,[2],0.588 ± 0.095 kcal/mol
same,folding stability dG unfold,[3],1 ± 0.09 kcal/mol
SAGGSAPRVVRVETVTLTPPADSTVTARLLRLETPEGPRYVLAVRDPSTPVVVARPVPEGATLLEESAGGSA [r15_75_TrMRF],folding stability dG unfold,[1],-0.237 ± 0.11 kcal/mol
same,folding stability dG unfold,[2],-0.124 ± 0.1 kcal/mol
same,folding stability dG unfold,[3],-0.581 ± 0.23 kcal/mol
SAGGSMSESEVVEVTVGGKPVTITVHREDNRYSAEVTLPPGVRVVLPFGGPESPEKAVEEAVRALESAGGSA [r2_92_JUSTAS],folding stability dG unfold,[1],0.425 ± 0.065 kcal/mol
same,folding stability dG unfold,[2],0.508 ± 0.046 kcal/mol
same,folding stability dG unfold,[3],0.352 ± 0.036 kcal/mol
SAGGSAGGSMYVVKIKLKVYGENGEEYYFELELEVPEDELGEIEIELPGENLEFEAEVEVLPGSAGGSAGGS [r12_354_TrMRF],folding stability dG unfold,[1],3.38 ± 0.14 kcal/mol
same,folding stability dG unfold,[2],3.73 ± 0.12 kcal/mol
same,folding stability dG unfold,[3],2.63 ± 0.15 kcal/mol
SAGGSAGGSSAPPGEVRTEAVSLTVRSTVPITYPNSPTTTLSLTTTLTVTLTREVSPVRPEVESAGGSAGGS [r20_14_JUSTAS],folding stability dG unfold,[1],3.34 ± 0.22 kcal/mol
same,folding stability dG unfold,[2],3.84 ± 0.085 kcal/mol
same,folding stability dG unfold,[3],2.88 ± 0.21 kcal/mol
SEYSRIEFEDYTVLVVKKTLPNGKPLYLVRLYRKEDPKVDPVEVDSPEEAEEAVKELLKKHLPGEEVEKESA [r9_749_TrMRF],folding stability dG unfold,[1],3.08 ± 0.15 kcal/mol
same,folding stability dG unfold,[2],3.3 ± 0.033 kcal/mol
same,folding stability dG unfold,[3],2.3 ± 0.11 kcal/mol
SAGGSAGGSAGAPNIVVVTLTRDALFYNPVEGKWEVKPVTLTRAFTSKEEADKWLEEIGLSAGGSAGGSAGG [r11_984_TrMRF],folding stability dG unfold,[1],3.5 ± 0.095 kcal/mol
same,folding stability dG unfold,[2],3.84 ± 0.042 kcal/mol
same,folding stability dG unfold,[3],2.95 ± 0.091 kcal/mol
SAGGSAGGSAGGMIRIVNEETGEEIEISPEELEELLAKSDKPVRIEVDGKVIPLDAKDLSAGGSAGGSAGGS [r10_839_TrROS_Hall],folding stability dG unfold,[1],0.352 ± 0.091 kcal/mol
same,folding stability dG unfold,[2],-0.268 ± 0.054 kcal/mol
same,folding stability dG unfold,[3],0.85 ± 0.03 kcal/mol
SAGGMTLRIVLPEEEAEKLVEELKKIFPGAEIKVKKVEYNEETGEKLVVLEIKFKSKEEAEKAKKLLESAGG [r13_539_TrROS_Hall],folding stability dG unfold,[1],3.73 ± 0.083 kcal/mol
same,folding stability dG unfold,[2],3.8 ± 0.12 kcal/mol
same,folding stability dG unfold,[3],3.54 ± 0.1 kcal/mol
SAGKIKKIEVKEVTNENGEKYKKITIEVEKEGKKVEIIVNKNGEKFIKVEKNGKTITLPLDEALELLKKSAG [r5_157_TrROS_Hall],folding stability dG unfold,[1],1.23 ± 0.3 kcal/mol
same,folding stability dG unfold,[2],1.19 ± 0.13 kcal/mol
same,folding stability dG unfold,[3],1.23 ± 0.088 kcal/mol
ATVTVEKLPDGYRVTVTIGATYIDPETGKPVELSAPVTAFVPPEVPDPEVAAKRAAAEALAEFLAALPEGGS [r1_414_TrMRF],folding stability dG unfold,[1],1.85 ± 0.091 kcal/mol
same,folding stability dG unfold,[2],1.74 ± 0.023 kcal/mol
same,folding stability dG unfold,[3],2 ± 0.057 kcal/mol
SAGGSAGGSAGGMTITIKVPPNMTEEQLRELARELARKLGLEDVEVRIERREDGTVRITFSAGGSAGGSAGG [r7_810_TrROS_Hall],folding stability dG unfold,[1],4.85 ± 0.15 kcal/mol
same,folding stability dG unfold,[2],4.83 ± 0.12 kcal/mol
same,folding stability dG unfold,[3],4.91 ± 0.2 kcal/mol
SAGMDFPESYTPIASNGKTLVFKSPTEVYIVLYSPEGGSEVRSFTPGDESVLNPFLEELKKSDYVNLNISAG [r14_12_JUSTAS],folding stability dG unfold,[1],0.995 ± 0.093 kcal/mol
same,folding stability dG unfold,[2],1.1 ± 0.087 kcal/mol
same,folding stability dG unfold,[3],0.695 ± 0.028 kcal/mol
GSNAVEVTLEVEVTITDPKTPDNKTTTVTIPLTVKLPPSVTSLEELEALARERAEAVAAELGGTVVTVTPVS [r1_300_JUSTAS],folding stability dG unfold,[1],2.49 ± 0.089 kcal/mol
same,folding stability dG unfold,[2],2.42 ± 0.067 kcal/mol
same,folding stability dG unfold,[3],2.61 ± 0.098 kcal/mol
SAGGSAGGGSLKYTPGVHRLTYYDPATGTTTTLTFTSEEEALEYLKKKYPDVPWKRNPDGTWVLSAGGSAGG [r6_288_JUSTAS],folding stability dG unfold,[1],2.08 ± 0.25 kcal/mol
same,folding stability dG unfold,[2],2.15 ± 0.12 kcal/mol
same,folding stability dG unfold,[3],1.62 ± 0.059 kcal/mol
SAGGSAGGSAGGSMKIEIVTNDPKKAEEIKEKLEKEGYPKKKNPINIEVKEISEEELLKSAGGSAGGSAGGS [r4_281_JUSTAS],folding stability dG unfold,[1],0.533 ± 0.16 kcal/mol
same,folding stability dG unfold,[2],0.628 ± 0.053 kcal/mol
same,folding stability dG unfold,[3],-0.113 ± 0.085 kcal/mol
SAGGSAGGGKRLEITRTYFIPPDDIDKLKDLPGIREVTPHRMPDGYYMITVTIRIPISADQLKASAGGSAGG [r6_155_TrROS],folding stability dG unfold,[1],1.94 ± 0.2 kcal/mol
same,folding stability dG unfold,[2],2.1 ± 0.084 kcal/mol
same,folding stability dG unfold,[3],1.7 ± 0.051 kcal/mol
